Laboratory results as given in the DeepSol protein solubility set.

Experiment: soluble on expression in E. coli; label from the status in PepcDB or PDB records

| Sequence | soluble on expression in E. coli |
| --- | --- |
| MAIQHPDIQPAVNHSVQVAIAGAGPVGLMMANYLGQMGIDVLVVEKLDKLIDYPRAIGIDDEALRTMQSVGLVDDVLPHTTPWHAMRFLTPKGRCFADIQPMTDEFGWPRRNAFIQPQVDAVMLEGVSRFPNVRCLFSRELEAFSQQDDEVTLHLKTAEGQREIVKAQWLVACDGGASFVRRTLNVPFEGKTAPNQWIVVDIANDPLSTPHIYLCCDPVRPYVSAALPHAVRRFEFMVMPGETEEQLREPQNMRKLLSKVLPNPDNVELIRQRVYTHNARLAQRFRIDRVLLAGDAAHIMPVWQGQGYNSGMRDAFNLAWKLALVIQGKARDALLDTYQQERRDHAKAMIDLSVTAGNVLAPPKRWQGTLRDGVSWLLNYLPPVKRYFLEMRFKPMPQYYGGALMREGEAKHSPVGKMFIQPKVTLENGDVTLLDNAIGANFAVIGWGCNPLWGMSDEQIQQWRALGTRFIQVVPEVQIHTAQDNHDGVLRVGDTQGRLRSWFAQHNASLVVMRPDRFVAATAIPQTLGKTLNKLASVMTLTRPDADVSVEKVA | soluble |
| MEGEAELWNFLERHLRSIYEGDWATYEATTHEELSLYEWFVTPHRLDGLPFHRFMVEKNWATRGRAYRLDLLEKRLQRYGDVAIFSYTLLLTVEEEAGLRHRAVNESRVAVRFPEGWKVVHVHKSPAG | soluble |
| MLRISELKLPLGHPPDAMEPAILARLGLSATDLVSFAVARRANDARKKSAIQMVYSVDVVLRDEAAVLRRFEGDHHLRVTPDTGYHFVAKAPEGFDGPRPVVIGAGPCGLFAGLILAQMGLKPIIVDRGKVVRERTKDTWGLWRRSELNPESNVQFGEGGAGTFSDGKLYSQIKDPRFLGRKVLTEFVKAGAPEEILTEAHPHIGTFRLVHMVENMRALIESLGGEYRWQHRVEDFDIEVGEDGVRRVTGLHIAGQGHLPARHVVMALGHSSRDTFQVLYDRGVHIEAKPFSIGVRIEHPQSWIDRARFGDCAGHKDLGAAAYAISHHAKNGRTVYSFCMCPGGTVVAATSEPGRVVTNGMSQYSRNERNANSGFVVDIDPERDYPGHPLAGVDFQRKWESLAFQAGGGTYQAPGQLVGDFLAGRPSTVFGAVTPSYKPGVHLTDLAQCLPDFAIEAMREALPIFGRQIPGYDHPDVVLTGVETRTSSPVRITRGKDFQSLNTAGLYPAGEGAGYAGGILSAAVDGIKVAEAVAKQYVAEGLISACLEHHHHHH | soluble |
| MIKVDMTVDAKGLSCPMPIVRTKKAINELQPGQVLEVQATDKGSKADIKAWAESTGHQYLGTIEENGVLKHYIRKSAEHETRKETTFPHVVSNEELQEKLHDPDSFVLDVREPAEYAFGHIPGAVSIPLGELENRMAELPKDKTIYVVCRTGTRSDLAAQKLAEKGFDRVRNVIPGMSQWNGPLDSAQS | soluble |
| MTQTNRVIIFDTTLRDGEQSPGAAMTKEEKIRVARQLEKLGVDIIEAGFAAASPGDFEAVNAIAKTITKSTVCSLSRAIERDIRQAGEAVAPAPKKRIHTFIATSPIHMEYKLKMKPKQVIEAAVKAVKIAREYTDDVEFSCEDALRSEIDFLAEICGAVIEAGATTINIPDTVGYSIPYKTEEFFRELIAKTPNGGKVVWSAHCHNDLGLAVANSLAALKGGARQVECTVNGLGERAGNASVEEIVMALKVRHDLFGLETGIDTTQIVPSSKLVSTITGYPVQPNKAIVGANAFSHESGIHQDGVLKHRETYEIMSAESVGWATNRLSLGKLSGRNAFKTKLADLGIELESEEALNAAFARFKELADKKREIFDEDLHALVSDEMGSMNAESYKFISQKISTETGEEPRADIVFSIKGEEKRASATGSGPVDAIFKAIESVAQSGAALQIYSVNAVTQGTESQGETSVRLARGNRVVNGQGADTDVLVATAKAYLSALSKLEFSAAKPKAQGSGTI | not soluble |
| MGSDKIHHHHHHMSHTITVIGLGAGDLEQLPLGVYRLILNQDHLYVRTKDHPVIEELIGEGHSFTFFDSIYEQHETFEAVYDAIVAELLEAAKSKEILYAVPGHPLVAERTVQLLLEAEREGRVTVKILGGQSFLDPMFSALKIDPVEGCQVLDGTMLSRDEVHVTQHIVICQVYDQMIASHVKLTLMELLPDDYEVTVATAVGTKNEKLETVPLYELDRVTTISNLTAVYVPPVEDEVILYQDFRTLRQIIATLRGPDGCPWDKKQTHQSLKKYLLEEAYEVLEAIDEENEDHLVEELGDLLLQVLLHAQIGEDDGWFQIEDVIRSISEKMIRRHPHVFGERQVEDAEDVVETWDEIKKAEKGEDQASTSILGKIPKGLPSLMLAFELQKKAAKVGFDWAEVEPMWAKLDEEMHEFKEEIQAGHSQEMAKEFGDVLFVLVNIGRFYNIYAEEALHRTNEKFKRRFQSIEQAITAKGDTLEESSLEEMDVLWNQAKESESQGE | not soluble |
| MGSDKIHHHHHHMILGEIMEVLAFKNQSLIDHVNDMVKYWERIKYRYLKTIKRALEALNIKLDIEKVDEFMKILIKLHDIGKASKIYQRAIINDQEKLMGFRHELVSAYYTYHILLKKFGDKNLAFIGALTVMLHHEPIIMGQIRNLKKKELTAEVVLDKLKKFDGMIEDFEDLIKKLIGYSIGDIIKNDSNKDDIIRFVIEMSVRARHTPNSEKLRFIVGTLLLPLVMCDYKGAESREGKAPKFAEVLEVESYVI | not soluble |
| MHDTMHKIFGATPPIFSYTPILTMNLCIAKATPNVCHSTGNLCKAEMDNVTSWVYDKTQGLFITGE | not soluble |
| MGSDKIHHHHHHMIKVLHLFTTLDSGGVESFLFNYYSHIDRKKIQFDFIVPGKEQGFLEDKMKELGAKVYHVPLLRKKPLHQFLSLARIIKKGDYDIVHCHGYKSAIGLILSKIIGCKIRIIHSHMAYVTENSFQKVLRKLVTILVKILATHWFACGEDSAKWLYGEKAYKDGKIEIIFNAIDLKKYQFLSDVREKCRRELDVSNKFVLGNIARLSDQKNQSYLFNVLKELILIKPNVILLLVGNGEDEQKLKQKALELNLTPYVLFLGRRTDISDLLSAMDVFLLPSKYEGLPVSLVEAQASGLQILSSDTVTQEVDVTKNISYLPINEESVLLWKDKVLSLTSEECNRFEINNSMTDGLYDICYQASKLLNRYQEMCVIKEI | not soluble |
| GSHMSHDGKEEPGIAKKINSVDDIIIKCQCWVQKNDEERLAEILSINTRKAPPKFYVHYVNYNKRLDEWITTDRINLDKEVLYPKLKATDED | soluble |
| MGSDKIHHHHHHMSSSGKVIVVGAGIVGLATAWHLQEHGFEVSVLDRDGVAAGSSWGNAGWLAPAKTIPLSEPGLWTYGPKELFNPVSPMHMPLRVDPKLWLFLAQFMAQAFQRKWDSTMADLTEIDKVALEAFDELSIGGVEGLTHEGPFVIGFEEERQSAGFRKEIDGVSRHGQKVEMSRLENPQELAPMLNEQIQVAYRLEGQRFIEPGPYVQSLADAVVKRGGVIRAGAEVVHVAKGDRPAVILADGSREEADKVVVATGAWLPGLTREYGVKTLVQAGRGYSFSVATDIPAKHSVYLPHHRMACTPYEGRFRIAGTMEFRGPDEPFQQGRVDAIVSQAKKVMRGIDFNDRQDEWVGSRPVTPDGRPLIGQTKAENIYVAGGHGMWGVVLGPATGKYLAELMATGNTNPIIKPFDPLR | not soluble |
| MGSDKIHHHHHHMAQKNNNVIPMTFDDAFYRKMAKQKFKQREYKRAAEYFEKVLELSPDDLEIQIDYAQCLVQLGIAKKAEHLFYDNIIYNRHLEDSFYELSQLNIEVNEPNKAFLFGINYVIVSDDQDYRDELDQMFDVKYQSEEQIELEAQLFVVQILFQYLFSQGRLKDAKNYVLHQPQEVQDHRVVRNLLAMCYLYLGEYDTAKALYEALLQEDSTDIYALCHYTLLLYNTKENEQYQKYLKILNKVVPMNDDESFKLGIVLSYLKQYRASQQLLYPLYKKGKFLSIQMYNALAYNYYYLGEEDESHYYWDKLKQISKVEIGHAPWVIENSKEVFDQHILPLLQSDDSHYRLYGIFLLDQLNGKEIVMTESIWQVLENLNNYEKLYLTYLVQGLTLNKLDFIHRGLLTLYQNELFVSENDLMVAWINQGELIIAEKVDLTDVEPYIGAFIYLYFKNQPRNVTKKQITTWLGITQYKLNKMIEFLLSI | not soluble |
| MQVEQRTLNTAAHPFQITAYWLDQISDFETAVDYPIMIICPGGGFTYHSGREEAPIATRMMAAGMHTVVLNYQLIVGDQSVYPWALQQLGATIDWITTQASAHHVDCQRIILAGFSAGGHVVATYNGVATQPELRTRYHLDHYQGQHAAIILGYPVIDLTAGFPTTSAARNQITTDARLWAAQRLVTPASKPAFVWQTATDESVPPINSLKYVQAMLQHQVATAYHLFGSGIHGLALANHVTQKPGKDKYLNDQAAIWPQLALRWLQEQGLLAGNYLEHHHHHH | soluble |
| MGSDKIHHHHHHMPFQQGLLATPVPAHARHLFFTLQSPEALPAALDALLPQVDGKQLLLGVGAPLAKALGREIPGLRPFPLLDAAVENPSTQHALWLWLRGDERGDLLLRTQALEQALAPALSLADSVDGFLHRGGHDLTGYEDGTENPTDEEAVQAAIAADGSSFAAFQLWKHDLQYFKSLPQADQDNIIGRRLSDNEELDDAPASAHVKRTAQESFEPEAFMVRRSVSWADQRGAGLAFVALGKSFEAFEVQLRRMSGLEDGIIDGLYRFSRPLTGGYYWCPPMSETGVDLSPLLRA | not soluble |
| MERFDAVIIGAGAAGMFCAAQAGQAGSRVLLIDNGKKPGRKILMSGGGRCNFTNLYVEPAAYLSQNPHFCKSALARYTQWDFIDLVGRYGIAWHEKTLGQLFCDDSAQRIVDMLVAECDKGGVTMRLRSEVLSVERDESGFVLALNGETVTTQKLVIASGGLSMPGLGASPFGYKIAEQFGLKVLPTRAGLVPFTLHKPLLEQLQTLSGVSVPCVITARNGTVFRENLLFTHRGLSGPAVLQISSYWQPGELVSINLLPDLSLEDVLNEQRNAHPNQSLKNTLAMHLPKRLVECLQQLGLIPDVSLRQLNVRDQQTLVDTLTAWQVQPNGTEGYRTAEVTLGGVDTNELSSRTMEARRVPGLYFIGEVMDVTGWLGGYNFQWAWSSAWACAQDLIALKIN | soluble |
| VSGAHTDVRPELRKLAQAILDGIDPAVRVAAAMASGGGPGTGKCQQVWCPLCALAALVTGEQHPLLTVIADHSLALLEVIRAIVDDIDRSAKPPPEGPPGGGQTGASGGENTNGEGSMKSHYQAIPVTIEE | not soluble |
| MEQEFFFPPPKKSDGPVVACVVEKKGDGTRTSMRQNEIYAYSAQIRTGDGCMVMPKIHWNSFEPSDWVSCTLEYVNKANQIKEKEMLEISKVPAENFDRFGMPPTRFENGIVQIKTLFVACPEFIKNRETRNAYGSYKKLFILNIGLGFVSTRRTADGNLAEKVKNGDVYTGIFEFRAKDNGAINFNHRGRVRDETNHVIERDAMWELTKTSSVAATDVQKKQMKEAIEQLRKDAEQFEREFKDSQSRPVAPMLPPNEISENRKEINLGLALPSRHSQPSIRTVDVVTTTPAQMMPTASSFRIPFAQVSKAPVVAPSSQLQQQQQQPCSSNQTARIGNFLERDQVRGNLLGVPLSSSTPRGSPELLRRREVTADDGNITSNTAVMLRDNNANPMNRRRPS | not soluble |
| NQNQTQHKQRPQATAEQIRLAQMISDHNDADFEEKVKQLIDITGKNQDECVIALHDCNGDVNRAINVLLEGNPDTHSWEMVGKKKGVSGQK | soluble |
| MGSSHHHHHHGGTGENLYFQGGSGPAREKAIVLIDGPALVHRWYHRWSYTTERYGTSLDVKQFAIKNARFMIATAHSFDPAHMAQHLLSPQTEYAHTPKHNRIIVCFDHGDGGRRQIYADYKANRLQKAVTSEFRLIERVAKKVFADEPRESLLVVPDCDAGLANLNAEADDMIATLAFFNQQNTRPTVVMSHDYDLYQLVDEAKKSYHYDIRTKHLVSERGVMERVGVPPKLVRDFKSLAGDSSDNIPGVNGIGKVRARNLLKKYGDLDGILFKGIKKETGHLGELLNEGAKMALISRQLVDFRMCPKVIKVCESFMRI | not soluble |
